Experimental findings from PMC7337493 (The Journal of Cell Biology, 2020) are described below.

First the molecules themselves.
B1: MBP-ATG13MR (domain or fragment, human, UniProt O75143 363-460, looked up)
chain: HDVLETIFVRKVGAFVNKPINQVTLTSLDIPFAMFAPKNLELEDTDPMVNPPDSPETESPLQGSLHSDGSSGGSSGNTHDDFVMIDFKPAFSKDDILP
notes: ATG13, human, middle region, residues 363-460; not shown: MBP, N-terminal, kept
B2: ATG13(363-C) (domain or fragment, human, UniProt O75143 363-517, looked up)
chain: HDVLETIFVRKVGAFVNKPINQVTLTSLDIPFAMFAPKNLELEDTDPMVNPPDSPETESPLQGSLHSDGSSGGSSGNTHDDFVMIDFKPAFSKDDILPMDLGTFYREFQNPPQLSSLSIDIGAQSMAEDLDSLPEKLAVHEKNVREFDAFVETLQ
notes: ATG13, human, residue 363 to the C terminus
B3: FIP200NTD (domain or fragment, human, UniProt Q8TDY2 1-640, looked up)
chain: MKLYVFLVNTGTTLTFDTELTVQTVADLKHAIQSKYKIAIQHQVLVVNGGECMAADRRVCTYSAGTDTNPIFLFNKEMILCDRPPAIPKTTFSTENDMEIKVEESLMMPAVFHTVASRTQLALEMYEVAKKLCSFCEGLVHDEHLQHQGWAAIMANLEDCSNSYQKLLFKFESIYSNYLQSIEDIKLKLTHLGTAVSVMAKIPLLECLTRHSYRECLGRLDSLPEHEDSEKAEMKRSTELVLSPDMPRTTNESLLTSFPKSVEHVSPDTADAESGKEIRESCQSTVHQQDETTIDTKDGDLPFFNVSLLDWINVQDRPNDVESLVRKCFDSMSRLDPRIIRPFIAECRQTIAKLDNQNMKAIKGLEDRLYALDQMIASCGRLVNEQKELAQGFLANQKRAENLKDASVLPDLCLSHANQLMIMLQNHRKLLDIKQKCTTAKQELANNLHVRLKWCCFVMLHADQDGEKLQALLRLVIELLERVKIVEALSTVPQMYCLAVVEVVRRKMFIKHYREWAGALVKDGKRLYEAEKSKRESFGKLFRKSFLRNRLFRGLDSWPPSFCTQKPRKFDCELPDISLKDLQFLQSFCPSEVQPFLRVPLLCDFEPLHQHVLALHNLVKAAQSLDEMSQTITDLLSEQK
notes: FIP200 (RB1CC1), human, N-terminal domain, residues 1-640 of 1,594; the form printed without a tag in NSEM, MALS, HDX-MS and cryo-EM samples; also called FIP200 N-terminal domain; untagged FIP200NTD
B4: MBP-FIP200NTD (domain or fragment, human, UniProt Q8TDY2 1-640, looked up)
chain: B3 chain
notes: FIP200 (RB1CC1), human, N-terminal domain, residues 1-640; also called N-terminal MBP–tagged FIP200NTD; not shown: MBP, N-terminal, kept
B5: FIP200NTD–MBP (domain or fragment, human, UniProt Q8TDY2 1-640, looked up)
chain: B3 chain
notes: FIP200 (RB1CC1), human, N-terminal domain, residues 1-640 of 1,594; also called FIP200(N-640)–MBP; FIP200-MBP; not shown: GST, N-terminal, cleaved; MBP, C-terminal, kept

Series [1] has as its target B3. Briefly: negative stain EM; purified samples diluted to ~50–200 nM, uranyl acetate stain, 2D classification; MBP tags used to mark positions. The note with it: both partners purified.
Series [2] concerns the target B3. Briefly: SEC-MALS; Superose 6 Increase 10/300 GL; 50 mM Tris, 150 mM NaCl, 1 mM TCEP, pH 7.8; sample ~6–10 µM, 100 µl injected. The note with it: both partners purified. (Size exclusion chromatography separates by hydrodynamic size, large species first.)
Series [3] deals with the molecule itself. The description is as above.
Series [4] deals with the molecule itself. Briefly: negative stain EM; purified samples diluted to ~50–200 nM, uranyl acetate stain, 2D classification; MBP tags used to mark positions.

In the case of B1, the “stoichiometry N” value was 1 per FIP200NTD dimer with FIP200NTD [1] and 0.5 molecules per molecule of FIP200NTD (2:1 FIP200NTD:binder) in the series with FIP200NTD [2].

On to B2, for which the “stoichiometry N” value with FIP200NTD [2] was 0.5 molecules per molecule of FIP200NTD (2:1 FIP200NTD:binder).

As for B3, the “stoichiometry N” value in series [3] is 2.

As to B4, the “stoichiometry N” value in series [4] came out at 2.

As to B5, in series [4], the “stoichiometry N” value turned out to be 2.

Usually stoichiometry N stands for a count of units in the complex or per binding partner.
